Laboratory results as given in patent publication US20180273587A1 (AILERON THERAPEUTICS, published 2018).
Positions of bridges follow the written chain, without caps; N, C: chain ends. Non-standard residues stand in square brackets, D forms with d. Bip = N[C@@H](Cc1ccc(-c2ccccc2)cc1)C(=O)O; R8 = C=CCCCCCC[C@@](C)(N)C(=O)O; Chg = N[C@H](C(=O)O)C1CCCCC1; S5 = C=CCCC[C@](C)(N)C(=O)O

B1: SEQ ID NO: 1697 (peptide)
peptide: Ac-IWIAQA[Bip]R[R8]IGDAFN[S5]YYA-NH2
modifications: staple 9-16
SMILES: CC[C@H](C)[C@H](NC(C)=O)C(=O)N[C@@H](Cc1c[nH]c2ccccc12)C(=O)N[C@H](C(=O)N[C@@H](C)C(=O)N[C@@H](CCC(N)=O)C(=O)N[C@@H](C)C(=O)N[C@@H](Cc1ccc(-c2ccccc2)cc1)C(=O)N[C@@H](CCCNC(=N)N)C(=O)N[C@]1(C)CCCCCCC=CCCC[C@@](C)(C(=O)N[C@@H](Cc2ccc(O)cc2)C(=O)N[C@@H](Cc2ccc(O)cc2)C(=O)N[C@@H](C)C(N)=O)NC(=O)[C@H](CC(N)=O)NC(=O)[C@H](Cc2ccccc2)NC(=O)[C@H](C)NC(=O)[C@H](CC(=O)O)NC(=O)CNC(=O)[C@H]([C@@H](C)CC)NC1=O)[C@@H](C)CC
notes: also called Ac-IWIAQABipR$r8IGDAFN$YYA-NH2
B2: SEQ ID NO: 1713 (peptide)
peptide: Ac-IW[Chg]AQALR[R8]IGDAFN[S5]YYA-NH2
modifications: staple 9-16
SMILES: CC[C@H](C)[C@H](NC(C)=O)C(=O)N[C@@H](Cc1c[nH]c2ccccc12)C(=O)N[C@H](C(=O)N[C@@H](C)C(=O)N[C@@H](CCC(N)=O)C(=O)N[C@@H](C)C(=O)N[C@@H](CC(C)C)C(=O)N[C@@H](CCCNC(=N)N)C(=O)N[C@]1(C)CCCCCCC=CCCC[C@@](C)(C(=O)N[C@@H](Cc2ccc(O)cc2)C(=O)N[C@@H](Cc2ccc(O)cc2)C(=O)N[C@@H](C)C(N)=O)NC(=O)[C@H](CC(N)=O)NC(=O)[C@H](Cc2ccccc2)NC(=O)[C@H](C)NC(=O)[C@H](CC(=O)O)NC(=O)CNC(=O)[C@H]([C@@H](C)CC)NC1=O)C1CCCCC1
notes: also called Ac-IWChgAQALR$r8IGDAFN$YYA-NH2
B3: SEQ ID NO: 1722 (peptide)
peptide: Ac-AWIAAALR[R8]IGDAFN[S5]YYA-NH2
modifications: staple 9-16
SMILES: CC[C@H](C)[C@H](NC(=O)[C@H](Cc1c[nH]c2ccccc12)NC(=O)[C@H](C)NC(C)=O)C(=O)N[C@@H](C)C(=O)N[C@@H](C)C(=O)N[C@@H](C)C(=O)N[C@@H](CC(C)C)C(=O)N[C@@H](CCCNC(=N)N)C(=O)N[C@]1(C)CCCCCCC=CCCC[C@@](C)(C(=O)N[C@@H](Cc2ccc(O)cc2)C(=O)N[C@@H](Cc2ccc(O)cc2)C(=O)N[C@@H](C)C(N)=O)NC(=O)[C@H](CC(N)=O)NC(=O)[C@H](Cc2ccccc2)NC(=O)[C@H](C)NC(=O)[C@H](CC(=O)O)NC(=O)CNC(=O)[C@H]([C@@H](C)CC)NC1=O
B4: SEQ ID NO: 1720 (peptide)
peptide: Ac-SWIAAALR[R8]IGDAFN[S5]YYA-NH2
modifications: staple 9-16
SMILES: CC[C@H](C)[C@H](NC(=O)[C@H](Cc1c[nH]c2ccccc12)NC(=O)[C@H](CO)NC(C)=O)C(=O)N[C@@H](C)C(=O)N[C@@H](C)C(=O)N[C@@H](C)C(=O)N[C@@H](CC(C)C)C(=O)N[C@@H](CCCNC(=N)N)C(=O)N[C@]1(C)CCCCCCC=CCCC[C@@](C)(C(=O)N[C@@H](Cc2ccc(O)cc2)C(=O)N[C@@H](Cc2ccc(O)cc2)C(=O)N[C@@H](C)C(N)=O)NC(=O)[C@H](CC(N)=O)NC(=O)[C@H](Cc2ccccc2)NC(=O)[C@H](C)NC(=O)[C@H](CC(=O)O)NC(=O)CNC(=O)[C@H]([C@@H](C)CC)NC1=O
B5: SEQ ID NO: 1725 (peptide)
peptide: Ac-IDIAAALR[R8]IGDAFN[S5]YYA-NH2
modifications: staple 9-16
SMILES: CC[C@H](C)[C@H](NC(C)=O)C(=O)N[C@@H](CC(=O)O)C(=O)N[C@H](C(=O)N[C@@H](C)C(=O)N[C@@H](C)C(=O)N[C@@H](C)C(=O)N[C@@H](CC(C)C)C(=O)N[C@@H](CCCNC(=N)N)C(=O)N[C@]1(C)CCCCCCC=CCCC[C@@](C)(C(=O)N[C@@H](Cc2ccc(O)cc2)C(=O)N[C@@H](Cc2ccc(O)cc2)C(=O)N[C@@H](C)C(N)=O)NC(=O)[C@H](CC(N)=O)NC(=O)[C@H](Cc2ccccc2)NC(=O)[C@H](C)NC(=O)[C@H](CC(=O)O)NC(=O)CNC(=O)[C@H]([C@@H](C)CC)NC1=O)[C@@H](C)CC
B6: SEQ ID NO: 1724 (peptide)
peptide: Ac-FWIAAALR[R8]IGDAFN[S5]YYA-NH2
modifications: staple 9-16
SMILES: CC[C@H](C)[C@H](NC(=O)[C@H](Cc1c[nH]c2ccccc12)NC(=O)[C@H](Cc1ccccc1)NC(C)=O)C(=O)N[C@@H](C)C(=O)N[C@@H](C)C(=O)N[C@@H](C)C(=O)N[C@@H](CC(C)C)C(=O)N[C@@H](CCCNC(=N)N)C(=O)N[C@]1(C)CCCCCCC=CCCC[C@@](C)(C(=O)N[C@@H](Cc2ccc(O)cc2)C(=O)N[C@@H](Cc2ccc(O)cc2)C(=O)N[C@@H](C)C(N)=O)NC(=O)[C@H](CC(N)=O)NC(=O)[C@H](Cc2ccccc2)NC(=O)[C@H](C)NC(=O)[C@H](CC(=O)O)NC(=O)CNC(=O)[C@H]([C@@H](C)CC)NC1=O
B7: SEQ ID NO: 1726 (peptide)
peptide: Ac-IRIAAALR[R8]IGDAFN[S5]YYA-NH2
modifications: staple 9-16
SMILES: CC[C@H](C)[C@H](NC(C)=O)C(=O)N[C@@H](CCCNC(=N)N)C(=O)N[C@H](C(=O)N[C@@H](C)C(=O)N[C@@H](C)C(=O)N[C@@H](C)C(=O)N[C@@H](CC(C)C)C(=O)N[C@@H](CCCNC(=N)N)C(=O)N[C@]1(C)CCCCCCC=CCCC[C@@](C)(C(=O)N[C@@H](Cc2ccc(O)cc2)C(=O)N[C@@H](Cc2ccc(O)cc2)C(=O)N[C@@H](C)C(N)=O)NC(=O)[C@H](CC(N)=O)NC(=O)[C@H](Cc2ccccc2)NC(=O)[C@H](C)NC(=O)[C@H](CC(=O)O)NC(=O)CNC(=O)[C@H]([C@@H](C)CC)NC1=O)[C@@H](C)CC
B8: SEQ ID NO: 1718 (peptide)
peptide: Ac-KWIAAALR[R8]IGDAFN[S5]YYA-NH2
modifications: staple 9-16
SMILES: CC[C@H](C)[C@H](NC(=O)[C@H](Cc1c[nH]c2ccccc12)NC(=O)[C@H](CCCCN)NC(C)=O)C(=O)N[C@@H](C)C(=O)N[C@@H](C)C(=O)N[C@@H](C)C(=O)N[C@@H](CC(C)C)C(=O)N[C@@H](CCCNC(=N)N)C(=O)N[C@]1(C)CCCCCCC=CCCC[C@@](C)(C(=O)N[C@@H](Cc2ccc(O)cc2)C(=O)N[C@@H](Cc2ccc(O)cc2)C(=O)N[C@@H](C)C(N)=O)NC(=O)[C@H](CC(N)=O)NC(=O)[C@H](Cc2ccccc2)NC(=O)[C@H](C)NC(=O)[C@H](CC(=O)O)NC(=O)CNC(=O)[C@H]([C@@H](C)CC)NC1=O
B9: SEQ ID NO: 1719 (peptide)
peptide: Ac-HWIAAALR[R8]IGDAFN[S5]YYA-NH2
modifications: staple 9-16
SMILES: CC[C@H](C)[C@H](NC(=O)[C@H](Cc1c[nH]c2ccccc12)NC(=O)[C@H](Cc1c[nH]cn1)NC(C)=O)C(=O)N[C@@H](C)C(=O)N[C@@H](C)C(=O)N[C@@H](C)C(=O)N[C@@H](CC(C)C)C(=O)N[C@@H](CCCNC(=N)N)C(=O)N[C@]1(C)CCCCCCC=CCCC[C@@](C)(C(=O)N[C@@H](Cc2ccc(O)cc2)C(=O)N[C@@H](Cc2ccc(O)cc2)C(=O)N[C@@H](C)C(N)=O)NC(=O)[C@H](CC(N)=O)NC(=O)[C@H](Cc2ccccc2)NC(=O)[C@H](C)NC(=O)[C@H](CC(=O)O)NC(=O)CNC(=O)[C@H]([C@@H](C)CC)NC1=O
B10: SEQ ID NO: 1717 (peptide)
peptide: Ac-RWIAAALR[R8]IGDAFN[S5]YYA-NH2
modifications: staple 9-16
SMILES: CC[C@H](C)[C@H](NC(=O)[C@H](Cc1c[nH]c2ccccc12)NC(=O)[C@H](CCCNC(=N)N)NC(C)=O)C(=O)N[C@@H](C)C(=O)N[C@@H](C)C(=O)N[C@@H](C)C(=O)N[C@@H](CC(C)C)C(=O)N[C@@H](CCCNC(=N)N)C(=O)N[C@]1(C)CCCCCCC=CCCC[C@@](C)(C(=O)N[C@@H](Cc2ccc(O)cc2)C(=O)N[C@@H](Cc2ccc(O)cc2)C(=O)N[C@@H](C)C(N)=O)NC(=O)[C@H](CC(N)=O)NC(=O)[C@H](Cc2ccccc2)NC(=O)[C@H](C)NC(=O)[C@H](CC(=O)O)NC(=O)CNC(=O)[C@H]([C@@H](C)CC)NC1=O
B11: SEQ ID NO: 1716 (peptide)
peptide: Ac-EWIAAALR[R8]IGDAFN[S5]YYA-NH2
modifications: staple 9-16
SMILES: CC[C@H](C)[C@H](NC(=O)[C@H](Cc1c[nH]c2ccccc12)NC(=O)[C@H](CCC(=O)O)NC(C)=O)C(=O)N[C@@H](C)C(=O)N[C@@H](C)C(=O)N[C@@H](C)C(=O)N[C@@H](CC(C)C)C(=O)N[C@@H](CCCNC(=N)N)C(=O)N[C@]1(C)CCCCCCC=CCCC[C@@](C)(C(=O)N[C@@H](Cc2ccc(O)cc2)C(=O)N[C@@H](Cc2ccc(O)cc2)C(=O)N[C@@H](C)C(N)=O)NC(=O)[C@H](CC(N)=O)NC(=O)[C@H](Cc2ccccc2)NC(=O)[C@H](C)NC(=O)[C@H](CC(=O)O)NC(=O)CNC(=O)[C@H]([C@@H](C)CC)NC1=O
B12: SEQ ID NO: 1721 (peptide)
peptide: Ac-QWIAAALR[R8]IGDAFN[S5]YYA-NH2
modifications: staple 9-16
SMILES: CC[C@H](C)[C@H](NC(=O)[C@H](Cc1c[nH]c2ccccc12)NC(=O)[C@H](CCC(N)=O)NC(C)=O)C(=O)N[C@@H](C)C(=O)N[C@@H](C)C(=O)N[C@@H](C)C(=O)N[C@@H](CC(C)C)C(=O)N[C@@H](CCCNC(=N)N)C(=O)N[C@]1(C)CCCCCCC=CCCC[C@@](C)(C(=O)N[C@@H](Cc2ccc(O)cc2)C(=O)N[C@@H](Cc2ccc(O)cc2)C(=O)N[C@@H](C)C(N)=O)NC(=O)[C@H](CC(N)=O)NC(=O)[C@H](Cc2ccccc2)NC(=O)[C@H](C)NC(=O)[C@H](CC(=O)O)NC(=O)CNC(=O)[C@H]([C@@H](C)CC)NC1=O

Each binder was assayed against T1, MCL-1 (UniProt Q07820 172-327, limits assumed) (assay: Ki table, method not stated).
T1 construct: also called Myeloid cell leukemia 1
T1 sequence (Q07820 172-327 limits assumed): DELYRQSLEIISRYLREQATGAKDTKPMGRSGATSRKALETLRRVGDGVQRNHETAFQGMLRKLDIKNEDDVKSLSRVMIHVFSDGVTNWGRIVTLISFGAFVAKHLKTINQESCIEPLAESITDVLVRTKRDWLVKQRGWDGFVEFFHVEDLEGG

Ki | Binder
83.7 nM | B1
4.6 nM | B2
3.8 nM | B3
3.9 nM | B4
3 nM | B5
6.2 nM | B6
9.8 nM | B7
3.9 nM | B8
3.6 nM | B9
4.5 nM | B10
2.2 nM | B11
4.8 nM | B12

These binders were tested against BCL-XL (UniProt Q07817 1-209) (assay: Ki table, method not stated).
Chain of BCL-XL (Q07817 1-209): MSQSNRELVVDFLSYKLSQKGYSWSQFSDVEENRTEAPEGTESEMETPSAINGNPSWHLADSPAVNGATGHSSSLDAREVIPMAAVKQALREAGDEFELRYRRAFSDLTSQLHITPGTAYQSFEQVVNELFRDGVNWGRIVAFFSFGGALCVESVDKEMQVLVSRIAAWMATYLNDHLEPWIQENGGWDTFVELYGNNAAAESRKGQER

Ki | Binder
8 nM | B1
20.9 nM | B2
32.6 nM | B3
33.4 nM | B4
36.3 nM | B5
33.9 nM | B6
20.5 nM | B7
27.2 nM | B8
25.2 nM | B9
32.8 nM | B10
72 nM | B11
35.9 nM | B12

The binders below were run against BCL-2 (UniProt P10415 1-217, limits assumed) (assay: Ki table, method not stated).
Chain of BCL-2 (P10415 1-217 limits assumed): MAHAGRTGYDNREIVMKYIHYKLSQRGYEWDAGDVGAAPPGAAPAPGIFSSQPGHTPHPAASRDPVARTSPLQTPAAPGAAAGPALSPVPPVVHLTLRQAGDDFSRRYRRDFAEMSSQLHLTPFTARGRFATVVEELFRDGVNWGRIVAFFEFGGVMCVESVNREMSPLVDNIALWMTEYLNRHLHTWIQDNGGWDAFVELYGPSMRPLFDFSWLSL

Ki | Binder
280 nM | B1
38.9 nM | B2
63.9 nM | B3
53.2 nM | B4
41.1 nM | B5
76.7 nM | B6
39.1 nM | B7
49.7 nM | B8
52 nM | B9
47.8 nM | B10
118 nM | B11
64.9 nM | B12
